One test concerns the target HLA-B*15:42. Description: IEDB peptide-MHC binding, purified MHC/competitive/fluorescence; filed as Kd, often an IC50 or EC50 that approximates it; ≥ and ≤ were set here for values at or beyond the usual limits of such assays. The note with it: source organism: Escherichia coli K-12.
The next test concerns the target HLA-B*83:01. The description is as above. The note with it: source organism: Escherichia coli K-12.
For another test, the target named is HLA-A*32:07. The test is described as above. The conditions noted are these: source organism: Escherichia coli K-12.
The target in another test is HLA-B*27:20. Described as above. The note with it: source organism: Escherichia coli K-12.
The target of a further test is HLA-B*40:13. The test is described as above. The conditions noted are these: source organism: Escherichia coli K-12.
A further test has as its target HLA-B*45:06. The description is as above. The note with it: source organism: Escherichia coli K-12.
Another test concerns the target HLA-B*73:01. Nature of the test: IEDB peptide-MHC binding, purified MHC/direct/fluorescence; filed as Kd, often an IC50 or EC50 that approximates it; ≥ and ≤ were set here for values at or beyond the usual limits of such assays. The note with it: source organism: Escherichia coli O157:H7.
Another test deals with HLA-C*06:02. Described as above. The note with it: source organism: Escherichia coli K-12.

For orientation: Kd means the concentration at which binding is half-saturated. For RQWGMGFLL, the Kd is ≥ 5000 nM with HLA-B*15:42; ≥ 5000 nM with HLA-B*83:01; 1.2 nM in the test with HLA-A*32:07; ≤ 0.1 nM with HLA-B*27:20; ≤ 1 nM in the test with HLA-B*40:13; ≥ 5000 nM with HLA-B*45:06. Also, the Kd in the test with HLA-B*73:01 came out at 6000 nM; in the test with HLA-C*06:02, 1710 nM.
